Assays:
[1] = molecular target: T1, human sodium-dependent phosphate transporter 2B (NaPi2b) (human, UniProt O95436 1-690); test: flow cytometry, HEK293-6e cells transfected with human NaPi2b
T1 construct: UniProt ID is given as 095436 [sic]; also called hNaPi2b; Hu NaPi2b
T1 sequence: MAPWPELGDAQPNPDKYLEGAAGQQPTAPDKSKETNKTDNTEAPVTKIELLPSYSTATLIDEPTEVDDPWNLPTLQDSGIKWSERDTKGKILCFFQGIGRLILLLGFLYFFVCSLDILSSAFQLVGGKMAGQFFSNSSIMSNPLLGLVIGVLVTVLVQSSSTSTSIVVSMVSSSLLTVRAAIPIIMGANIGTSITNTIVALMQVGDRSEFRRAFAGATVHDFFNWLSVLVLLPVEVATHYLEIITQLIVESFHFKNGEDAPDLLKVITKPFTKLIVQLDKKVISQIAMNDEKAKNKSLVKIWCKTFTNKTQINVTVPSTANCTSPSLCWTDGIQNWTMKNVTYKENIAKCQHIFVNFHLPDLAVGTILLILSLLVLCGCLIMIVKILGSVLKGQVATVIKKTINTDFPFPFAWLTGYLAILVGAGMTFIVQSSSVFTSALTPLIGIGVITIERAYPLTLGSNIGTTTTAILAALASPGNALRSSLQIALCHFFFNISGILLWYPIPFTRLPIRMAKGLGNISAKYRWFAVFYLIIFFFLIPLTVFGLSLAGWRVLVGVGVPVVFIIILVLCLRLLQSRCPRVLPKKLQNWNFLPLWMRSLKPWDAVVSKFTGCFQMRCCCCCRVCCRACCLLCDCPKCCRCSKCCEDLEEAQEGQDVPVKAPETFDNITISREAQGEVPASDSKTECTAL
Experimental: (§1) The binding cross-reactivity of humanized antibody variant v29456 to human, cynomolgus and mouse NaPi2b was assessed by flow cytometry using HEK293-6e transfected cells.
(§2) Briefly, HEK293-6e cells were transfected for ˜24 hours to transiently express human NaPi2b, cynomolgus or mouse NaPi2b, at 1 μg of DNA per 1 million cells. Following transfection, 50,000 cells per well were seeded in V-bottom 96-well plates and incubated with 200 nM of primary antibody for 18-24 hours at 4° C. to prevent internalization. Post-incubation, cells were washed and stained with anti-Human IgG Fc AF647 conjugate (Jackson Immuno Research Labs, West Grove, PA, Cat. No. 109-605-098, Lot. No. 124868) at 4° C. for 1 hour. Following staining and washing, fluorescence was detected by flow cytometry on BD LSRFortessa™ Cell Analyzer (BD Biosciences, Franklin Lake, NJ) with 10,000 minimum events collected per well. The AF647/APC-A GeoMean (fluorescence signal geometric mean, proportional to anti-Human AF647 binding) was calculated for the live singlet cell population for each primary antibody using FlowJo™ v8 software (BD Biosciences, Franklin Lake, NJ). The Bmax and Kd of each primary antibody were calculated using GraphPad Prism Version 9 (GraphPad Software, San Diego, CA)

[2] = molecular target: T1, human sodium-dependent phosphate …; test: flow cytometry on TOV-21G cells (endogenous NaPi2b), 24 h at 4 C, anti-human IgG Fc AF647 detection
Experimental: (§3) Briefly, cells were seeded at 50,000 cells/well in conical-bottom 96-well plates and treated with test antibody for 24 hours at 4° C. to prevent internalization. […] Following incubation, cells were washed and stained with anti-Human IgG Fc AF647 conjugate (Jackson Immuno Research Labs, West Grove, PA; Cat. No. 109-605-098) at 4° C. for 30 min. Following incubation and washing, fluorescence was detected by flow cytometry on a BD LSRFortessa™ Cell Analyzer (BD Biosciences, Franklin Lake, NJ) with 1,000 minimum events collected per well. The AF647/APC-A GeoMean (fluorescence signal geometric mean, proportional to anti-Human AF647 binding) was calculated for the live cell population using FlowJo™ Version 10.8.1 (BD Biosciences, Franklin Lake, NJ) and plotted for each test antibody using GraphPad Prism Version 9 (GraphPad Software, San Diego, CA).
(§4) The ability of the humanized antibody variants v38591 and v29456 to bind to NaPi2b expressed on cells was assessed on endogenous NaPi2b-expressing tumor cell lines IGROV-1 (ovarian adenocarcinoma) and TOV-21G (ovarian carcinoma) by flow cytometry.
(§5) Cellular binding was performed according to methods described in Example 13.

[3] = molecular target: T1, human sodium-dependent phosphate …; test: flow cytometry, IGROV-1 cells (endogenous NaPi2b); apparent Kd
Experimental: as §2
(§6) The ability of ADCs to bind to cells expressing NaPi2b was assessed. […] Binding to endogenous high NaPi2b-expressing cell lines IGROV-1 and HCC-78 was assessed by flow cytometry according to methods described in Example 5.

[4] = molecular target: T1, human sodium-dependent phosphate …; test: flow cytometry, IGROV-1 cells (endogenous NaPi2b), 24 h at 4 °C; apparent Kd
Procedure, shortened: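 IGROV-1 cells were incubated with test antibody for 24 hours at 4° C to prevent internalization, then stained with anti-human IgG Fc AF647 for 30 min at 4° C. AF647 geometric mean fluorescence of live cells was measured by flow cytometry and plotted per antibody.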

[5] = molecular target: T1, human sodium-dependent phosphate …; test: flow cytometry, HCC-78 cells (endogenous NaPi2b); apparent Kd
Experimental: as §2, §6

[6] = molecular target: T2, KLH (Sigma-Aldrich, H8283); test: non-specific binding ELISA, KLH coated at 5 µg/mL, antibody at 100 nM
T2 construct: also called keyhole limpet hemocyanin
Experimental: NS-ELISA was carried out in Corning®96-well EIA/RIA Easy Wash™ Clear Flat Bottom Polystyrene High Bind Microplate coated overnight at 4° C. with 50 μL of Heparin (Sigma, H3149) diluted with 50 mM sodium carbonate pH 9.6 to a final concentration of 250 μg/mL. The plate was incubated for 2 days at room temperature, wells that were coated with heparin were not covered to allow air dry. […] 50 μL each of insulin, KLH, dsDNA and ssDNA were added to a 96 well plate, followed by the incubation at 37° C. for 2 h. The coating materials were removed, and the plate was blocked with 200 μL of Gibco™ PBS pH7.4, 0.1% Tween®20, and incubated for 1 h at room temperature with shaking at 200 rpm. The plate was washed 3 times with Gibco™ PBS pH7.4, 0.1% Tween 20. […] Reactions were stopped after approximately 10 minutes by adding 100 μL of 1 M HCl to each well, and absorbance was read at 450 nm. Binding scores were calculated as the ratio of the ELISA signal of the antibody (antibody-treated) to the signal of a well containing buffer instead of the primary antibody (untreated). The cutoffs considered for each binding molecule (ssDNA, KLH, insulin, dsDNA and heparin) were internally calculated, based on the average of Zymeworks Inc. produced antibodies and antibodies benchmarks published in the literature.

[7] = molecular target: T1, human sodium-dependent phosphate …; test: flow cytometry, HEK293-6e cells transfected with human NaPi2b; apparent Kd
Experimental: as §1, §2

[8] = molecular target: T1, human sodium-dependent phosphate …; test: flow cytometry on IGROV-1 cells (endogenous NaPi2b), 24 h at 4 C, anti-human IgG Fc AF647 detection
Experimental: as §3, §4, §5

[9] = molecular target: T1, human sodium-dependent phosphate …; test: flow cytometry, HCC-78 cells (endogenous NaPi2b)
Experimental: as §2, §6

B1: v29456 humanized anti-NaPi2b antibody (H1L2) (antibody, human IgG1, kappa)
heavy: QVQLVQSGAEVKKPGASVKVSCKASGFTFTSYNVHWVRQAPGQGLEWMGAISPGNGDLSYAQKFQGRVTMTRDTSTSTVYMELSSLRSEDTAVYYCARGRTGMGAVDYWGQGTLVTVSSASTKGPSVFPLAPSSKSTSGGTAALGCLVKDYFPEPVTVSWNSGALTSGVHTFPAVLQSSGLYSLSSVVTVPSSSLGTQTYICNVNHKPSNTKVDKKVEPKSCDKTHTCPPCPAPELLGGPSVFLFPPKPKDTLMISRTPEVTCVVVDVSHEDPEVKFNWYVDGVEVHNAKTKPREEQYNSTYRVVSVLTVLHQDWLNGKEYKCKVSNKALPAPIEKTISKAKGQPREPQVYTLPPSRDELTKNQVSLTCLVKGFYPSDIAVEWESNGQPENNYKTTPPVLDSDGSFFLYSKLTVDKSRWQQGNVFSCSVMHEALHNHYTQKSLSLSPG
light: DVQMTQSPSSLSASVGDRVTITCRASQDVYSYLNWYQQKPGKAVKLLIYYTSRLQSGVPSRFSGSGSGTDYTLTISSLQPEDFATYYCQQYNIFPWTFGQGTKLEIKRTVAAPSVFIFPPSDEQLKSGTASVVCLLNNFYPREAKVQWKVDNALQSGNSQESVTEQDSKDSTYSLSSTLTLSKADYEKHKVYACEVTHQGLSSPVTKSFNRGEC
B1 was tested, and the “Bmax (APC-A GeoMean)” value [1] was 2540 APC-A GeoMean, the “EC50 (read off the curve)” value [2] was roughly 0.7 nM and the Kd [3] was 0.65 nM. For the same binder, the Kd [4] was 1.1 nM, the Kd [5] was 2.27 nM and the “NS-ELISA binding score (ratio of signal between antibody-treated and untreated)” value [6] was 1.37 ratio. The Kd [7] was 5.2 nM, the “EC50 (read off the curve)” value [8] was roughly 1 nM and the Bmax [9] was 21800.
